The results in this text go back to paper PMC4650713, “Crystal structure of Bax bound to the BH3 peptide of Bim identifies important contacts for interaction” (Cell Death & Disease, 2015).

A value given as a limit tells only on which side of the number the result lay.

Experiment [1] has as its target BaxΔC21 (UniProt Q07812).
The target in experiment [2] is BaxΔC21 (UniProt Q07812). As to the kind of experiment: SPR; competition in solution: BaxΔC21 at 25 nM incubated with increasing concentrations of BH3 peptide in 10 mM HEPES, 150 mM NaCl, 3.4 mM EDTA, 0.005% Tween-20, pH 7.4 with 0.5% octylglucoside, injected onto a CM5 chip with immobilised BimBH3; Bim4E channel subtracted; IC50.
BaxΔC21, sequence (Q07812 1-171 C62S/C126S): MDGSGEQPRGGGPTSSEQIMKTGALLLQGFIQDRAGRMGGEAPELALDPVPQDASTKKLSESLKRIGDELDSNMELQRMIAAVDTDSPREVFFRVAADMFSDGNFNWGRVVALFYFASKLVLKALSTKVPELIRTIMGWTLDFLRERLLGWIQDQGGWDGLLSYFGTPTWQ

For the substance BimBH3 E145K (peptide), in the experiment with BaxΔC21 [1], the core/latch dimer formation of BaxΔC21 triggered by the peptide with CHAPS (gel filtration) was over 50%. In the experiment with BaxΔC21 [2], this substance showed an IC50 of 2400 nM and a fold weaker binding than BimBH3 of 40 fold.

With BimBH3 peptide, the fold tighter binding than BidBH3 with BaxΔC21 [2] is 5 fold.

Consider BimBH3 P144A/E145A (peptide), for which the fold loss of affinity against BimBH3 with BaxΔC21 [2] was found to be 3 fold.
